The numbers were not newly measured in publication PMC6842113, which cites them from elsewhere.

Broadly, the Kd is the free concentration of one partner at which half of the binding sites on the other are occupied at equilibrium, for simple one-to-one binding.

This series concerns the target PSD-95 PDZ3-SH3-GK (Homo sapiens) (UniProt P78352).

In the case of SynGAP C-terminus (from UniProt Q9QUH6), the Kd was 200 nM.
